Test results taken from patent US20190352664A1, “COMPOSITIONS AND METHODS FOR CONTROLLING GENE EXPRESSION” (priority 2017, published 2019).

Test system: Arabidopsis
Assay: Ribo-seq and RNA-seq global translatome profiling (translational efficiency TE, mORF/uORF ribo-shift) upon elf18 treatment
Type: in vivo
Parameters: key to score (Ribo-shift): Up: ribo-shift up (i.e., increased mORF/uORF ratio); Down: ribo-shift down (i.e., decreased mORF/uORF ratio)
Conditions: elf18 vs Mock; for score (Ribo-shift): shift of mORF/uORF ratio, per uORF; for score (TE change): translational efficiency fold change, listed as shows 5′ UTR of the transcript

Molecule	score (Ribo-shift)	score (TE change)
AT5G49980.1_1: uORF of AT5G49980.1; peptide SEQ ID NO: 36 (nucleic acid, listed as DNA, chemistry not fully specified) DNA: ATGGAGACGAAGTGGAGAGAGAAAGCTCCCACTCTCTCACACCCCAAAGCTTCTTCTTCTTCTTCCTCTTCTTCCTCTTCCTCTTCTCTAATCTGA	Down	
AT5G15950.1: 5′ UTR of transcript; Adenosylmethionine decarboxylase family protein (nucleic acid) DNA: ACAATATCACAAACTCGTTTGCTCTTTTCATCATTACTAAATCATAAGCGGCTCTCAAGTTCTTTAGGGTTTCGAGTTTTCTCAATCTCCTACCTGATTAAGGTTAATTTCTTATCTTGGATCAATAACAAGAGAATTATAACTCCGGATTGTAATCAATATTCCTCTACATAAAAAGCGTGAATGAGATTATGATGGAATCGAAAGCTGGTAATAAGAAGTCAAGCAGCAATAGTTCCTTATGTTACGAAGCACCCCTTGGTTACAGCATTGAAGACGTTCGTCCTTTCGGTGGAATCAAGAAATTCAAATCTTCTGTCTACTCCAACTGCGCTAAGAGGCCTTCCTGAGTACTAGCCAGTTCCCTCCATAGCTTTTCAATTACAACAATCTCCTTTTCTCAAAGCTCTGGTTCCCCAAATCCTCTCGTCTTTTGTTTGCCCTCACAACAACAACAACAACGCAGAG		TEdown (389 genes displayed decreased TEfc (|z|≥1.5))
AT4G37925.1: 5′ UTR of transcript; subunit NDH-M of NAD(P)H:plastoquinone dehydrogenase complex (nucleic acid, listed as DNA, chemistry not fully specified, 5′ UTR of transcript; subunit NDH-M of NAD(P)H:plastoquinone dehydrogenase complex) DNA: ATGGTTCTGTAACCGGACAACATCTCAAAACTTGTTCTGTTTTTTTTTTTTCATTTCTTAGACAGAAAA		TEup (448 had increased TEfc)
AT5G57460.1: 5′ UTR of transcript (nucleic acid) DNA: GAAGATCTCATTTCTCTTTCTCCTTTTCTTCTCCGACGATTCTTCTCAGTTCTCAGATCTGATCGATTTCTTCATCAGATGTTTCAATCTAACCATTGAGATTGAATAGTCACCATTAGTAGAAGCTTCGAGATCAATTTCGAATCGGGATC		TEup (448 had increased TEfc)
AT4G26080.1: 5′ UTR of transcript; Protein phosphatase 2C family protein (nucleic acid) DNA: GAAGCAATTGTTGCATTAGCCTACCCATTTCCTCCTTCTTTCTCTCTTCTATCTGTGAACAAGGCACATTAGAACTCTTCTTTTCAACTTTTTTAGGTGTATATAGATGAATCTAGAAATAGTTTTATAGTTGGAAATTAATTGAAGAGAGAGAGATATTACTACACCAATCTTTTCAAGAGGTCCTAACGAATTACCCACAATCCAGGAAACCCTTATTGAAATTCAATTCATTTCTTTCTTTCTGTGTTTGTGATTTTCCCGGGAAATATTTTTGGGTATATGTCTCTCTGTTTTTGCTTTCCTTTTTCATAGGAGTCATGTGTTTCTTCTTGTCTTCCTAGCTTCTTCTAATAAAGTCCTTCTCTTGTGAAAATCTCTCGAATTTTCATTTTTGTTCCATTGGAGCTATCTTATAGATCACAACCAGAGAAAAAGATCAAATCTTTACCGTTA		TEdown (389 genes displayed decreased TEfc (|z|≥1.5))
AT4G32660.1: 5′ UTR of transcript; Protein kinase superfamily protein (nucleic acid) DNA: AATTGGTGGATGTCGTCGCGGTTCGACCCCAAGGGATTTGGCCGGTAAAATTATTGGGAGTTGTCTTTCTCTTGCACTCTCTCTAGTTCCAAACCCTAGCAATTCCTCTGTTTTCACCATTTTCGGAGATTATCACCTTCTCCCCGATTCGCCGCCTTGTGATTACATCTACGTAAAGAGTTTCTGGTAGAAATTTTCCCTCTTTTAGCTGCAGATTGGCATCAGATTCCGTTCTGGATGTGTCGGTGATCGATTTTCCGCGTCGGTG		TEup (448 had increased TEfc)
AT5G15950.1_1: uORF of AT5G15950.1; peptide SEQ ID NO: 35 (nucleic acid) DNA: ATGATGGAATCGAAAGCTGGTAATAAGAAGTCAAGCAGCAATAGTTCCTTATGTTACGAAGCACCCCTTGGTTACAGCATTGAAGACGTTCGTCCTTTCGGTGGAATCAAGAAATTCAAATCTTCTGTCTACTCCAACTGCGCTAAGAGGCCTTCCTGA	Down	
AT5G11790.1: 5′ UTR of transcript; N-MYC downregulated-like 2 (nucleic acid) DNA: AAACACAAAAAAACGAAGATAGCCATCGTTTTGGTGAGAGAAGAGAGAAGAGAGAAGAAGAAGGCCATGGAAAGATAATACTCTGCTTTTTTTTTAGAAATATACAGAGGAAATAAAGAGAGAGAGAAGGAG		TEdown (389 genes displayed decreased TEfc (|z|≥1.5))
AT4G32800.1: 5′ UTR of transcript; Integrase-type DNA-binding superfamily protein (nucleic acid) DNA: ATTTCATAAATCATAGAGAGAGAGAGAGAGAGAGAGAGAGAGTTTGGAAACATTCCAAAACCAGAACTCGATATTATTTCACCAAAGAATGATAGAAACAAGAACTATCTTTTTATAAAACTCTTTACACCCCAAAAGAAAATGTCTCACTCGTTTTGCCTTATAATATTTCTTTCAACAACAACCCAAATCTACAAAAAATCCCAATAAAAAAAAACTTCAGTCTGTTTGACATTTTGTCGAACACTTGGACGGCATCACAAAAAGCTCTAAACTTTCTGACTACCA		TEdown (389 genes displayed decreased TEfc (|z|≥1.5))
AT4G24750.1_1: uORF of AT4G24750.1; peptide SEQ ID NO: 26 (nucleic acid, listed as DNA, chemistry not fully specified) DNA: ATGAAGCCAAAACTATCCAATAACTCGAAATTGACTACTCTTTTCTTTTGTCTCTGTTGTTGA	Down	
AT1G19270.1: 5′ UTR of transcript; DA1 (nucleic acid) DNA: CGTGGGGAACGTTTTTTCCTGGAAGAAGAAGAAGAAGAGCTCAACAAGCTCAACGACCAAAAAACTTCGGACACGAAGACTTTTTAATTCATTTCTCCTCTTTTGTTTTTTTCGTTCCAAAATATTCGATACTCTCGATCTCTTCTTCGTGATCCTCATTAAATAAAAATACGATTTTTATTCTTTTTTTGTGAGTGCACCAAATTTTTTGACTTTGGATTAGCGTAGAATTCAAGCACATTCTGGGTTTATTCGTGTATGAGTAGACATTGATTTTGTCAAAGTTGCATTCTTTTATATAAAAAAAGTTTAATTTCCTTTTTTCTTTTCTTTTCTCTTTTTTTTTTTTTTCCCCCATGTTATAGATTCTTCCCCAAATTTTGAAGAAAGGAGAGAACTAAAGAGTCCTTTTTGAGATTCTTTTGCTGCTTCCCTTGCTTGATTAGATCATTTTTGTGATTCTGGATTTTGTGGGGGTTTCGTGAAGCTTATTGGGATCTTATCTGATTCAGGATTTTCTCAAGGCTGCATTGCCGTATGAGCAGATAGTTTTATTTAGGCATT		TEdown (389 genes displayed decreased TEfc (|z|≥1.5))
AT4G34460.1: 5′ UTR of transcript; GTP binding protein beta 1 (nucleic acid) DNA: GACCCTCTTCTCTCTCTCTAGCTAGTCTCAGGTCAGAGAAGCCATCATCAACATTCAACAAGAGAGCCGTGTTTGTGTCTTGACTGATTCTTCTCTCAAGCTTTTTTAATCTCTCTCTCTTTTCCCACGTAATTCCCCCAAATCCATTCTTTCTAGGGTTCGATCTCCCTCTCTCAATCATGAACCTTCTTCTCTTCTAGACCCCACAAAGTTTCCCCCTTTTATTTGATCGGCGACGGAGAAGCCTAAGTCTGATCCCGGA		TEdown (389 genes displayed decreased TEfc (|z|≥1.5))
AT5G14930.1: 5′ UTR of transcript; senescence-associated gene 101 (nucleic acid, listed as DNA, chemistry not fully specified) DNA: TATGGACTCTCGTTCTCAGACATTTATTTCTCTCAGTCTTACAATATAAATTTTCATTCTTACCATCCATAATTTTGTATTGTCTTCTCCACAGATCTATTCCAGCTCACGCC		TEdown (389 genes displayed decreased TEfc (|z|≥1.5))
AT5G49980.1: 5′ UTR of transcript; auxin F-box protein 5 (nucleic acid) DNA: AAAAAATAATCCCCAAATAATGGAGACGAAGTGGAGAGAGAAAGCTCCCACTCTCTCACACCCCAAAGCTTCTTCTTCTTCTTCCTCTTCTTCCTCTTCCTCTTCTCTAATCTGAATCCAAAGCCTCTCTCTTT		TEdown (389 genes displayed decreased TEfc (|z|≥1.5))
AT4G38950.1: 5′ UTR of transcript; ATP binding microtubule motor family protein (nucleic acid) DNA: AAGAACAAACAACTACCAAACTTGTAGGCAGTAGCAGGAGGAAGTGGGTGGGATTAACATTGTCATTTCTCTCTCTTTTTCTTTTACAAATCTTTCCGTTTTGTTTTCTTTTGGTTTTCCGGTGAGCACTGTTGTGTTTCCAATTCCGGCACTCTTTAGGGTTCCCTTTCAGAAGAAAACTTCACATTGTTGTTTCTCTCAACCGTGACATCTTGGATTACTACTTCTGACTACTTTCCTTTTTCATGTGCCCCAAAAGATAATAGTTACTTTTTCAAAATCTGGTTTTGTTGTTTGGGTTTGTGTCATTCATTGATAAAGTCACTAATGGAGAAGTACAAAACAATTGCAAAATTTCGAATCTGTGTTGTCATTGCTGAATTCTGTAGTGGATGTTTGCTTGCAGTTTAGAGCTTCGGAGTGCGAAGAGTGAGACACAAGAGGATTCTTTCTGGAACCGCATTATTCCCTTTAGAGGAGGAAGAAGAAGACAACTCACTCACAAGGAAAACAAAGGTTCCTCTGGTTACTCTGAAATATTCAAACCAATGGTGAGCAATTGGTAGCACTTGCTAAAGAAG		TEdown (389 genes displayed decreased TEfc (|z|≥1.5))
AT4G24750.1: 5′ UTR of transcript; Rhodanese/Cell cycle control phosphatase superfamily protein (nucleic acid) DNA: GAGTCTGGTTCGAAAAGACTGCTTCAATGAAGCCAAAACTATCCAATAACTCGAAATTGACTACTCTTTTCTTTTGTCTCTGTTGTTGATTCGCAAAGGCGAAGATTATCCATCTTCTCAGTTACTCCTACTGGAACCAAAAGCTCAGAACCTTAAAAC		TEdown (389 genes displayed decreased TEfc (|z|≥1.5))
